Measured values: patent publication US11702475B2, “Cysteine engineered fibronectin type III domain binding molecules” (Janssen Biotech, Inc., priority 2013, dated 2023)

Experiment: Analytical size exclusion chromatography (percent monomer)
Assay type: physicochemical
Details: NEM-conjugated cysteine variants; SEC, Abs280 monomer region 5.5-6 minutes vs oligomer region 4-5.3 minutes
Procedure: Size exclusion chromatography was used to determine the aggregation state of the FN3 domains binding EGFR. Aliquots (10 μL) of each purified FN3 domain were injected onto a Superdex 75 5/150 column (GE Healthcare) at a flow rate of 0.3 mL/min in a mobile phase of PBS pH 7.4. Elution from the column was monitored by absorbance at 280 nm.
The percent monomer for each protein was determined by integrating the Abs280 signal and comparing the peak in the monomer region (5.5-6 minutes) to the peaks in the oligomer region (4-5.3 minutes).

Molecule | Percent monomer
L7C (conjugate, left off: small tags and cut ends) LPAPKNCVVSEVTEDSARLSWDDPWAFYESFLIQYQESEKVGEAIVLTVPGSERSYDLTGLKPGTEYTVSIYGVHNVYKDTNMRGLPLSAIFTT | 93%
S55C (conjugate, left off: small tags and cut ends) LPAPKNLVVSEVTEDSARLSWDDPWAFYESFLIQYQESEKVGEAIVLTVPGSERCYDLTGLKPGTEYTVSIYGVHNVYKDTNMRGLPLSAIFTT | 100%
V77C (conjugate, left off: small tags and cut ends) LPAPKNLVVSEVTEDSARLSWDDPWAFYESFLIQYQESEKVGEAIVLTVPGSERSYDLTGLKPGTEYTVSIYGVHNCYKDTNMRGLPLSAIFTT | 92%
D23C (conjugate, left off: small tags and cut ends) LPAPKNLVVSEVTEDSARLSWDCPWAFYESFLIQYQESEKVGEAIVLTVPGSERSYDLTGLKPGTEYTVSIYGVHNVYKDTNMRGLPLSAIFTT | 100%
T81C (conjugate, left off: small tags and cut ends) LPAPKNLVVSEVTEDSARLSWDDPWAFYESFLIQYQESEKVGEAIVLTVPGSERSYDLTGLKPGTEYTVSIYGVHNVYKDCNMRGLPLSAIFTT | 86%
N76C (conjugate, left off: small tags and cut ends) LPAPKNLVVSEVTEDSARLSWDDPWAFYESFLIQYQESEKVGEAIVLTVPGSERSYDLTGLKPGTEYTVSIYGVHCVYKDTNMRGLPLSAIFTT | 94%
F31C (conjugate, left off: small tags and cut ends) LPAPKNLVVSEVTEDSARLSWDDPWAFYESCLIQYQESEKVGEAIVLTVPGSERSYDLTGLKPGTEYTVSIYGVHNVYKDTNMRGLPLSAIFTT | 57%
R84C (conjugate, left off: small tags and cut ends) LPAPKNLVVSEVTEDSARLSWDDPWAFYESFLIQYQESEKVGEAIVLTVPGSERSYDLTGLKPGTEYTVSIYGVHNVYKDTNMCGLPLSAIFTT | 100%
Y78C (conjugate, left off: small tags and cut ends) LPAPKNLVVSEVTEDSARLSWDDPWAFYESFLIQYQESEKVGEAIVLTVPGSERSYDLTGLKPGTEYTVSIYGVHNVCKDTNMRGLPLSAIFTT | 90%
D22C (conjugate, left off: small tags and cut ends) LPAPKNLVVSEVTEDSARLSWCDPWAFYESFLIQYQESEKVGEAIVLTVPGSERSYDLTGLKPGTEYTVSIYGVHNVYKDTNMRGLPLSAIFTT | 85%
P2C (conjugate, left off: small tags and cut ends) LCAPKNLVVSEVTEDSARLSWDDPWAFYESFLIQYQESEKVGEAIVLTVPGSERSYDLTGLKPGTEYTVSIYGVHNVYKDTNMRGLPLSAIFTT | 86%
G73C (conjugate, left off: small tags and cut ends) LPAPKNLVVSEVTEDSARLSWDDPWAFYESFLIQYQESEKVGEAIVLTVPGSERSYDLTGLKPGTEYTVSIYCVHNVYKDTNMRGLPLSAIFTT | 66%
L86C (conjugate, left off: small tags and cut ends) LPAPKNLVVSEVTEDSARLSWDDPWAFYESFLIQYQESEKVGEAIVLTVPGSERSYDLTGLKPGTEYTVSIYGVHNVYKDTNMRGCPLSAIFTT | 83%
V46C (conjugate, left off: small tags and cut ends) LPAPKNLVVSEVTEDSARLSWDDPWAFYESFLIQYQESEKVGEAICLTVPGSERSYDLTGLKPGTEYTVSIYGVHNVYKDTNMRGLPLSAIFTT | 100%
P24C (conjugate, left off: small tags and cut ends) LPAPKNLVVSEVTEDSARLSWDDCWAFYESFLIQYQESEKVGEAIVLTVPGSERSYDLTGLKPGTEYTVSIYGVHNVYKDTNMRGLPLSAIFTT | 88%
D80C (conjugate, left off: small tags and cut ends) LPAPKNLVVSEVTEDSARLSWDDPWAFYESFLIQYQESEKVGEAIVLTVPGSERSYDLTGLKPGTEYTVSIYGVHNVYKCTNMRGLPLSAIFTT | 79%

Molecule | Percent monomer
P87C (conjugate, left off: small tags and cut ends) LPAPKNLVVSEVTEDSARLSWDDPWAFYESFLIQYQESEKVGEAIVLTVPGSERSYDLTGLKPGTEYTVSIYGVHNVYKDTNMRGLCLSAIFTT | 98%
E43C (conjugate, left off: small tags and cut ends) LPAPKNLVVSEVTEDSARLSWDDPWAFYESFLIQYQESEKVGCAIVLTVPGSERSYDLTGLKPGTEYTVSIYGVHNVYKDTNMRGLPLSAIFTT | 100%
A26C (conjugate, left off: small tags and cut ends) LPAPKNLVVSEVTEDSARLSWDDPWCFYESFLIQYQESEKVGEAIVLTVPGSERSYDLTGLKPGTEYTVSIYGVHNVYKDTNMRGLPLSAIFTT | 95%
F27C (conjugate, left off: small tags and cut ends) LPAPKNLVVSEVTEDSARLSWDDPWACYESFLIQYQESEKVGEAIVLTVPGSERSYDLTGLKPGTEYTVSIYGVHNVYKDTNMRGLPLSAIFTT | 97%
P4C (conjugate, left off: small tags and cut ends) LPACKNLVVSEVTEDSARLSWDDPWAFYESFLIQYQESEKVGEAIVLTVPGSERSYDLTGLKPGTEYTVSIYGVHNVYKDTNMRGLPLSAIFTT | 100%
M83C (conjugate, left off: small tags and cut ends) LPAPKNLVVSEVTEDSARLSWDDPWAFYESFLIQYQESEKVGEAIVLTVPGSERSYDLTGLKPGTEYTVSIYGVHNVYKDTNCRGLPLSAIFTT | 91%
K5C (conjugate, left off: small tags and cut ends) LPAPCNLVVSEVTEDSARLSWDDPWAFYESFLIQYQESEKVGEAIVLTVPGSERSYDLTGLKPGTEYTVSIYGVHNVYKDTNMRGLPLSAIFTT | 100%
A3C (conjugate, left off: small tags and cut ends) LPCPKNLVVSEVTEDSARLSWDDPWAFYESFLIQYQESEKVGEAIVLTVPGSERSYDLTGLKPGTEYTVSIYGVHNVYKDTNMRGLPLSAIFTT | 100%
W25C (conjugate, left off: small tags and cut ends) LPAPKNLVVSEVTEDSARLSWDDPCAFYESFLIQYQESEKVGEAIVLTVPGSERSYDLTGLKPGTEYTVSIYGVHNVYKDTNMRGLPLSAIFTT | 76%
N82C (conjugate, left off: small tags and cut ends) LPAPKNLVVSEVTEDSARLSWDDPWAFYESFLIQYQESEKVGEAIVLTVPGSERSYDLTGLKPGTEYTVSIYGVHNVYKDTCMRGLPLSAIFTT | 100%
Y28C (conjugate, left off: small tags and cut ends) LPAPKNLVVSEVTEDSARLSWDDPWAFCESFLIQYQESEKVGEAIVLTVPGSERSYDLTGLKPGTEYTVSIYGVHNVYKDTNMRGLPLSAIFTT | 92%
S52C (conjugate, left off: small tags and cut ends) LPAPKNLVVSEVTEDSARLSWDDPWAFYESFLIQYQESEKVGEAIVLTVPGCERSYDLTGLKPGTEYTVSIYGVHNVYKDTNMRGLPLSAIFTT | 100%
K79C (conjugate, left off: small tags and cut ends) LPAPKNLVVSEVTEDSARLSWDDPWAFYESFLIQYQESEKVGEAIVLTVPGSERSYDLTGLKPGTEYTVSIYGVHNVYCDTNMRGLPLSAIFTT | 100%
H75C (conjugate, left off: small tags and cut ends) LPAPKNLVVSEVTEDSARLSWDDPWAFYESFLIQYQESEKVGEAIVLTVPGSERSYDLTGLKPGTEYTVSIYGVCNVYKDTNMRGLPLSAIFTT | 100%
G85C (conjugate, left off: small tags and cut ends) LPAPKNLVVSEVTEDSARLSWDDPWAFYESFLIQYQESEKVGEAIVLTVPGSERSYDLTGLKPGTEYTVSIYGVHNVYKDTNMRCLPLSAIFTT | 95%
